Where no end group is shown, it is not given here. The star is where a group is joined. Biotin = O=C1N[C@H]2[C@H](CS[C@H]2CCCCC(=O)*)N1
B1: biotinylated Qp (peptide)
peptide: Biotin-DTENIRFVFAAVKDTILQLNLKEYNLV
notes: Gαq C-terminal α5 peptide (Qp), last 27 residues of Gαq; also called bioQp; bioQP; source: synthetic peptide (GenScript); not shown: biotin, N-terminal, kept

Tests used:
β2-AR-mCerulean [1] = molecular target: T1, β2-AR-mCerulean (human, UniProt P07550 1-413); experiment: pull-down; binding step of the binding-and-release assay: 30 μM biotinylated Gα peptide and 100 μM isoproterenol mixed 5 min with native membranes (10 nM β2-mCer) in 20 mM HEPES, 100 mM NaCl, 45 mM KCl, 5 mM MgCl2, pH 7.4; complex depleted with streptavidin-coated magnetic beads; unbound receptor from mCer fluorescence of the supernatant; KD estimated from a single point; details: one partner purified
T1 construct: human β2-adrenergic receptor, cDNA from Open Biosystems; Constructed 'in a similar manner' to the SPASM sensors; m1 stands for it there; also called β2-mCer; β2-mCerulean; source: HEK293T, transiently transfected, native membranes

β2-AR-mCerulean [2] = molecular target: T1, β2-AR-mCerulean; experiment: cell-based or functional assay

| Binder | Kd (β2-AR-mCerulean [1]) | activation of endogenous Gs (BODIPY-FL-GTPγS) after fenoterol in native membranes with β2-AR-mCherry, with 30 μM Qp against no peptide (β2-AR-mCerulean [2]) |
| --- | --- | --- |
| B1 | > 200 µM | – |
| DTENIRFVFAAVKDTILQLNLKEYNLV [Qp (Gαq C terminus peptide)] | – | ~7 fold |
| Biotin-DTENIRRVFNDCRDIIQRMHLRQYELL [biotinylated Sp] | ~30 µM | – |

— article PMC6811539, “Minute-scale persistence of a GPCR conformation state triggered by non-cognate G protein interactions primes signaling” (Nature Communications, 2019)
